This is an account of results in publication doi:10.1101/2021.03.19.436221.

In this experiment the target is ALX301 (human). Put plainly: SPR.

Usually Kd stands for the concentration at which binding is half-saturated. Low values mean higher affinity, high ones lower affinity.

B1: mouse CD47 (natural protein)
chain: QLLFSNVNSIEFTSCNETVVIPCIVRNVEAQSTEEMFVKWKLNKSYIFIYDGNKNSTTTDQNFTSAKISVSDLINGIASLKMDKRDAMVGNYTCEVTELSREGKTVIELKNRTVSWFSPNEKILIVIFPILAILLFWGKFGILTLKYKSSHTNKRIILLLVAGLVLTVIVVVGAILLIPGEKPVKNASGLGLIVISTGILILLQYNVFMTAFGMTSFTIAILITQVLGYVLALVGLCLCIMACEPVHGPLLISGLGIIALAELLGLVYMKFVASNQRTIQPPRNR
The molecule B1 yielded a Kd of 3.41 nM. In other words, the single-digit nanomolar range.
